According to the supplement of paper PMC11246515:
± gives the standard deviation of the averaged measurements.

Assay: total protein half-life in vivo (active degradation + dilution); higher = more stable protein
[1] = E. coli NCM3722 delta-clpP delta-lon delta-hslV, growth: N-lim chemostat, doubling time 6 h
[2] = E. coli NCM3722 delta-lon, growth: N-lim chemostat, doubling time 6 h
[3] = E. coli NCM3722 delta-smpB, growth: N-lim chemostat, doubling time 6 h
[4] = wild type E. coli NCM3722, growth: C-lim chemostat, doubling time 3 h
[5] = wild type E. coli NCM3722, growth: C-lim chemostat, doubling time 6 h
[6] = wild type E. coli NCM3722, growth: C-lim chemostat, doubling time 12 h
[7] = wild type E. coli NCM3722, growth: N-lim chemostat, doubling time 6 h
[8] = wild type E. coli NCM3722, growth: N-lim chemostat, doubling time 12 h
[9] = wild type E. coli NCM3722, growth: P-lim chemostat, doubling time 6 h
[10] = wild type E. coli NCM3722, growth: P-lim chemostat, doubling time 12 h
[11] = E. coli NCM3722 delta-hslV, growth: N-lim chemostat, doubling time 6 h
[12] = E. coli NCM3722 delta-clpP, growth: N-lim chemostat, doubling time 6 h

Sequence: MMIRERIEEKLRAAFQPVFLEVVDESYRHNVPAGSESHFKVVLVSDRFTGERFLNRHRMIYSTLAEELSTTVHALALHTYTIKEWEGLQDTVFASPPCRGAGSIA [P0ABE2]
- total protein half-life in vivo [1]: 3.71 ± 0.15 h
- total protein half-life in vivo [2]: 1.81 ± 0.13 h
- total protein half-life in vivo [3]: 1.55 h
- total protein half-life in vivo [4]: 1.53 ± 0.071 h
- total protein half-life in vivo [5]: 2.52 ± 0.14 h
- total protein half-life in vivo [6]: 3.32 h
- total protein half-life in vivo [7]: 1.99 ± 0.31 h
- total protein half-life in vivo [8]: 3.19 h
- total protein half-life in vivo [9]: 3.23 h
- total protein half-life in vivo [10]: 5.55 ± 0.6 h

Sequence: MMKFKKCLLPVAMLASFTLAGCQSNADDHAADVYQTDQLNTKQETKTVNIISILPAKVAVDNSQNKRNAQAFGALIGAVAGGVIGHNVGSGSNSGTTAGAVGGGAVGAAAGSMVNDKTLVEGVSLTYKEGTKVYTSTQVGKECQFTTGLAVVITTTYNETRIQPNTKCPEKS
- total protein half-life in vivo [3]: 2.3 h
- total protein half-life in vivo [4]: 1.87 h
- total protein half-life in vivo [7]: 2.73 h

Sequence: MMKKPVVIGLAVVVLAAVVAGGYWWYQSRQDNGLTLYGNVDIRTVNLSFRVGGRVESLAVDEGDAIKAGQVLGELDHKPYEIALMQAKAGVSVAQAQYDLMLAGYRNEEIAQAAAAVKQAQAAYDYAQNFYNRQQGLWKSRTISANDLENARSSRDQAQATLKSAQDKLRQYRSGNREQDIAQAKASLEQAQAQLAQAELNLQDSTLIAPSDGTLLTRAVEPGTVLNEGGTVFTVSLTRPVWVRAYVDERNLDQAQPGRKVLLYTDGRPDKPYHGQIGFVSPTAEFTPKTVETPDLRTDLVYRLRIVVTDADDALRQGMPVTVQFGDEAGHE
- total protein half-life in vivo [1]: 6.76 ± 0.87 h
- total protein half-life in vivo [11]: 6.75 ± 0.14 h
- total protein half-life in vivo [2]: 6.47 ± 0.38 h
- total protein half-life in vivo [3]: 6.26 ± 0.13 h
- total protein half-life in vivo [4]: 3.39 ± 0.38 h
- total protein half-life in vivo [6]: 11.2 ± 1.9 h
- total protein half-life in vivo [7]: 6.2 ± 0.46 h
- total protein half-life in vivo [8]: 13.54 ± 0.12 h
- total protein half-life in vivo [9]: 6.02 ± 0.17 h
- total protein half-life in vivo [10]: 14.2 ± 0.91 h

Sequence: MMKMRWLSAAVMLTLYTSSSWAFSIDDVAKQAQSLAGKGYETPKSNLPSVFRDMKYADYQQIQFNHDKAYWNNLKTPFKLEFYHQGMYFDTPVKINEVTATAVKRIKYSPDYFTFGDVQHDKDTVKDLGFAGFKVLYPINSKDKNDEIVSMLGASYFRVIGAGQVYGLSARGLAIDTALPSGEEFPRFKEFWIERPKPTDKRLTIYALLDSPRATGAYKFVVMPGRDTVVDVQSKIYLRDKVGKLGVAPLTSMFLFGPNQPSPANNYRPELHDSNGLSIHAGNGEWIWRPLNNPKHLAVSSFSMENPQGFGLLQRGRDFSRFEDLDDRYDLRPSAWVTPKGEWGKGSVELVEIPTNDETNDNIVAYWTPDQLPEPGKEMNFKYTITFSRDEDKLHAPDNAWVQQTRRSTGDVKQSNLIRQPDGTIAFVVDFTGAEMKKLPEDTPVTAQTSIGDNGEIVESTVRYNPVTKGWRLVMRVKVKDAKKTTEMRAALVNADQTLSETWSYQLPANE
- total protein half-life in vivo [1]: 6.373 ± 0.046 h
- total protein half-life in vivo [11]: 6.94 ± 1 h
- total protein half-life in vivo [2]: 6.34 ± 0.17 h
- total protein half-life in vivo [3]: 5.91 ± 0.29 h
- total protein half-life in vivo [4]: 3.25 ± 0.11 h
- total protein half-life in vivo [5]: 6.12 ± 0.11 h
- total protein half-life in vivo [6]: 12.4 ± 0.37 h
- total protein half-life in vivo [7]: 6.43 ± 0.094 h
- total protein half-life in vivo [8]: 12.6 ± 0.2 h
- total protein half-life in vivo [9]: 6.37 ± 0.39 h
- total protein half-life in vivo [10]: 12.9 ± 0.14 h

Sequence: MMKNILAIQSHVVYGHAGNSAAEFPMRRLGANVWPLNTVQFSNHTQYGKWTGCVMPPSHLTEIVQGIAAIDKLHTCDAVLSGYLGSAEQGEHILGIVRQVKAANPQAKYFCDPVMGHPEKGCIVAPGVAEFHVRHGLPASDIIAPNLVELEILCEHAVNNVEEAVLAARELIAQGPQIVLVKHLARAGYSRDRFEMLLVTADEAWHISRPLVDFGMRQPVGVGDVTSGLLLVKLLQGATLQEALEHVTAAVYEIMVTTKAMQEYELQVVAAQDRIAKPEHYFSATKL
- total protein half-life in vivo [11]: 2.01 ± 0.45 h
- total protein half-life in vivo [2]: 1.63 ± 0.039 h
- total protein half-life in vivo [3]: 1.73 h
- total protein half-life in vivo [4]: 2.89 ± 0.033 h
- total protein half-life in vivo [5]: 5 ± 1.8 h
- total protein half-life in vivo [6]: 5.86 ± 0.53 h
- total protein half-life in vivo [7]: 1.832 ± 0.0067 h
- total protein half-life in vivo [8]: 2.45 h
- total protein half-life in vivo [9]: 4.49 ± 0.085 h
- total protein half-life in vivo [10]: 8.09 ± 0.6 h

Sequence: MMKRNILAVIVPALLVAGTANAAEIYNKDGNKVDLYGKAVGLHYFSKGNGENSYGGNGDMTYARLGFKGETQINSDLTGYGQWEYNFQGNNSEGADAQTGNKTRLAFAGLKYADVGSFDYGRNYGVVYDALGYTDMLPEFGGDTAYSDDFFVGRVGGVATYRNSNFFGLVDGLNFAVQYLGKNERDTARRSNGDGVGGSISYEYEGFGIVGAYGAADRTNLQEAQPLGNGKKAEQWATGLKYDANNIYLAANYGETRNATPITNKFTNTSGFANKTQDVLLVAQYQFDFGLRPSIAYTKSKAKDVEGIGDVDLVNYFEVGATYYFNKNMSTYVDYIINQIDSDNKLGVGSDDTVAVGIVYQF
- total protein half-life in vivo [1]: 5.54 ± 0.65 h
- total protein half-life in vivo [12]: 6.23 ± 0.86 h
- total protein half-life in vivo [11]: 5.98 ± 0.073 h
- total protein half-life in vivo [2]: 6.91 ± 0.67 h
- total protein half-life in vivo [3]: 5.865 ± 0.041 h
- total protein half-life in vivo [4]: 3.19 ± 0.046 h
- total protein half-life in vivo [5]: 6.83 ± 0.66 h
- total protein half-life in vivo [6]: 11.12 ± 0.049 h
- total protein half-life in vivo [7]: 5.95 ± 0.26 h
- total protein half-life in vivo [8]: 10.9 ± 0.82 h
- total protein half-life in vivo [9]: 6.15 ± 0.23 h

Sequence: MMKTMRIAAIPGDGIGKEVLPEGIRVLQAAAERWGFALSFEQMEWASCEYYSHHGKMMPDDWHEQLSRFDAIYFGAVGWPDTVPDHISLWGSLLKFRREFDQYVNLRPVRLFPGVPCPLAGKQPGDIDFYVVRENTEGEYSSLGGRVNEGTEHEVVIQESVFTRRGVDRILRYAFELAQSRPRKTLTSATKSNGLAISMPYWDERVEAMAENYPEIRWDKQHIDILCARFVMQPERFDVVVASNLFGDILSDLGPACTGTIGIAPSANLNPERTFPSLFEPVHGSAPDIYGKNIANPIATIWAGAMMLDFLGNGDERFQQAHNGILAAIEEVIAHGPKTPDMKGNATTPQVADAICKIILR
- total protein half-life in vivo [1]: 4.1 ± 1.1 h
- total protein half-life in vivo [12]: 2.64 ± 0.46 h
- total protein half-life in vivo [11]: 2.66 ± 0.067 h
- total protein half-life in vivo [2]: 4.83 ± 2.4 h
- total protein half-life in vivo [3]: 2.68 ± 0.02 h
- total protein half-life in vivo [4]: 2.6 ± 0.4 h
- total protein half-life in vivo [5]: 4.42 ± 0.51 h
- total protein half-life in vivo [6]: 7.5 ± 1.2 h
- total protein half-life in vivo [7]: 2.6337 ± 0.002 h
- total protein half-life in vivo [8]: 3.89 ± 0.11 h
- total protein half-life in vivo [9]: 4.47 ± 0.67 h
- total protein half-life in vivo [10]: 11.1 ± 0.13 h
